Reference: patent publication US20190352419A1 (ALX ONCOLOGY, published 2019)

How the values were obtained:
human SIRP-α v1 [1] = molecular target: T1, human SIRP-α v1 (human, UniProt P78324 31-149); assay: SPR (refers to Table M)
T1 construct: used as soluble SPR analyte; also called Human V1; hSIRPa v1

BL6 mouse SIRP-α protein [2] = molecular target: T2, BL6 mouse SIRP-α protein (mouse (C57BL/6 strain), UniProt P97797 32-148); assay: SPR KD (ProteOn XPR36), antibody on chip, SIRP analyte in solution
T2 construct: Soluble SPR analyte; also called C57BL/6
T2 sequence: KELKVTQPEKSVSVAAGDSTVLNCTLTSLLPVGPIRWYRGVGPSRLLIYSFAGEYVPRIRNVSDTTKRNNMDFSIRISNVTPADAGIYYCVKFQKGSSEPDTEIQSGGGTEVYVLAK

human SIRP-β = molecular target: T3, human SIRP-β (human, UniProt O00241 30-148); assay: binding affinity KD (SPR; method not restated in Example 7)
T3 construct: also called SIRPb; hSIRPb
T3 sequence (O00241 30-148): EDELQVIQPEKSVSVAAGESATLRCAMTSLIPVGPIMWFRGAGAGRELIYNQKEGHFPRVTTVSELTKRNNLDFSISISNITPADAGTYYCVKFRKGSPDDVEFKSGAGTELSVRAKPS

human SIRP-α v1 [3] = molecular target: T1, human SIRP-α v1; assay: as above
[4] = molecular target: T4, cynomolgus SIRP-α (SEQ ID NO:11) (cynomolgus, UniProt Q5TFQ8 30-148 (human entry)); assay: as above
T4 construct: 'extracellular domain (e.g., the D1 domain)' of a cynomolgus SIRP-α polypeptide; soluble SPR analyte; also called cyno1
T4 chain: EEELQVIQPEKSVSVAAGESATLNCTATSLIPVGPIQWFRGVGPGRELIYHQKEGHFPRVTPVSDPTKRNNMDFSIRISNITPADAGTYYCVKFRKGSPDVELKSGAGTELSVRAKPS

BL6 mouse SIRP-α protein [5] = molecular target: T2, BL6 mouse SIRP-α protein; assay: as above
NOD mouse SIRP-α protein = molecular target: T5, NOD mouse SIRP-α protein (mouse (NOD strain)); assay: as above
T5 construct: Soluble SPR analyte
T5 chain: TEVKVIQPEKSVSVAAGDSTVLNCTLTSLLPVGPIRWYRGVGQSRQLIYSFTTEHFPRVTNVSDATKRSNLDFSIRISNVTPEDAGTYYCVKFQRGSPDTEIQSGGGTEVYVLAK

[6] = molecular target: T6, BALBc mouse SIRP-α protein (mouse (BALB/c strain)); assay: as above
T6 construct: Soluble SPR analyte
T6 chain: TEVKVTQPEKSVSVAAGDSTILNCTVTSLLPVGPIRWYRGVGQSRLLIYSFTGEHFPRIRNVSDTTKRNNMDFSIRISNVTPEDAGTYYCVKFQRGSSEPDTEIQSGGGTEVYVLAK

human SIRP-α v2 = molecular target: T7, human SIRP-α v2 (human); assay: as above
T7 construct: soluble SPR analyte; also called Human V2; hSIRPa v2
T7 sequence (chain, as listed by the source): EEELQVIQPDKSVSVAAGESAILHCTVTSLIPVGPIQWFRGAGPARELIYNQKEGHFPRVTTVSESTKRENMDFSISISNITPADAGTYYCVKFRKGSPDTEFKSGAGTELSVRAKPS

human SIRP-γ = molecular target: T8, human SIRP-γ (human, UniProt Q9P1W8 29-147); assay: as above
T8 construct: also called SIRPg; hSIRPg
T8 sequence (Q9P1W8 29-147): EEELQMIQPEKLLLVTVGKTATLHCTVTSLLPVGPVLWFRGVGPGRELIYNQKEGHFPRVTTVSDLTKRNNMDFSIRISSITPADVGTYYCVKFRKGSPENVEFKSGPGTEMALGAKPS

T1 sequence (P78324 31-149): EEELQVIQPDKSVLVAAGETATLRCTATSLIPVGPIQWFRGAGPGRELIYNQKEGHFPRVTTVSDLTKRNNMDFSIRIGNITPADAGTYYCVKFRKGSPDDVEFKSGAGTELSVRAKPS

B1: Hum8/AB21_HC_Mutall (antibody, V domains shown)
VH: EVQLVESGGGVVQPGGSLRLSCAASGFTFSSNAMSWVRQAPGKGLEWVAGISAGGSDTYYPASVKGRFTISRDNSKNTLYLQMNSLRAEDTAVYYCARETWNHLFDYWGQGTLVTVSS
VL: SYELTQPPSVSVSPGQTARITCSGGAYSSYYYAWYQQKPGQAPVLVIYSDSKRPSGIPERFSGSSSGTTVTLTISGVQAEDEADYYCGGYDQSSYTNPFGGGTKLTVL
Q: Which results are given for B1?
A: Kd (human SIRP-α v1 [1]): ≤ 0.01 nM; Kd (BL6 mouse SIRP-α protein [2]): 415000 nM

B2: Hum9/AB21_HC_Mutall (antibody, V domains shown)
VH: EVQLVESGGGVVQPGGSLRLSCAASGFTFSSNAMSWVRQAPGKGLEWVAGISAGGSDTYYPASVKGRFTISRDNSKNTLYLQMNSLRAEDTAVYYCARETWNHLFDYWGQGTLVTVSS
VL: SYELTQPPSVSVSPGQTARITCSGGAYSSYYYAWYQQKPGQAPVLVIYSDDKRPSGIPERFSGSSSGTTVTLTISGVQAEDEADYYCGGYDQSSYTNPFGGGTKLTVL
Q: Which Kd (human SIRP-α v1 [1]) does the source give for B2 here?
A: The Kd was at most 0.01 nM.

Q: And the Kd (BL6 mouse SIRP-α protein [2])?
A: The Kd was 533000 nM.

B3: PC301 (antibody, human IgG1, lambda, N297A)
heavy: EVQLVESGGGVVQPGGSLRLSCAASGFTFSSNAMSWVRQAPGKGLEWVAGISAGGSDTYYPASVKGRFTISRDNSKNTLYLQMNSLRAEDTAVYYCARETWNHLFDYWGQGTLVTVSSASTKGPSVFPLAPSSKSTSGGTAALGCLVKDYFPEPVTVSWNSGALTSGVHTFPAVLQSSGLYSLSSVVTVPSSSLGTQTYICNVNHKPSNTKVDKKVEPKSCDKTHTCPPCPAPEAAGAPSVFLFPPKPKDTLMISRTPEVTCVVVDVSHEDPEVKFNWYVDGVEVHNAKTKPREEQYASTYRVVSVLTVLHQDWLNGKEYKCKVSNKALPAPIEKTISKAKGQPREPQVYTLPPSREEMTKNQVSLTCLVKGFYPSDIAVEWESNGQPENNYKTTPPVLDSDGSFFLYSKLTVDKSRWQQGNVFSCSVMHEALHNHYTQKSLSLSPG
light: SYELTQPPSVSVSPGQTARITCSGGSYSSYYYAWYQQKPGQAPVTLIYSDDKRPSNIPERFSGSSSGTTVTLTISGVQAEDEADYYCGGYDQSSYTNPFGGGTKLTVLGQPKAAPSVTLFPPSSEELQANKATLVCLISDFYPGAVTVAWKADSSPVKAGVETTTPSKQSNNKYAASSYLSLTPEQWKSHRSYSCQVTHEGSTVEKTVAPTECS
notes: also called antibody PC301
Q: Which Kd (human SIRP-β) does the source give for B3 here?
A: Its Kd is 0.0122 nM.

Q: What about the Kd (human SIRP-α v1 [3]) of the same binder?
A: The Kd was 0.00206 nM.

Q: And the Kd [4]?
A: Its Kd is 0.0389 nM.

Q: And the Kd (BL6 mouse SIRP-α protein [5])?
A: Its Kd is 9.25 nM.

Q: What about the Kd (NOD mouse SIRP-α protein) of the same binder?
A: Its Kd is 2.93 nM.

Q: And the Kd [6]?
A: Its Kd is 9.53 nM.

B4: PC334 (antibody, human IgG1, lambda, N297A)
heavy: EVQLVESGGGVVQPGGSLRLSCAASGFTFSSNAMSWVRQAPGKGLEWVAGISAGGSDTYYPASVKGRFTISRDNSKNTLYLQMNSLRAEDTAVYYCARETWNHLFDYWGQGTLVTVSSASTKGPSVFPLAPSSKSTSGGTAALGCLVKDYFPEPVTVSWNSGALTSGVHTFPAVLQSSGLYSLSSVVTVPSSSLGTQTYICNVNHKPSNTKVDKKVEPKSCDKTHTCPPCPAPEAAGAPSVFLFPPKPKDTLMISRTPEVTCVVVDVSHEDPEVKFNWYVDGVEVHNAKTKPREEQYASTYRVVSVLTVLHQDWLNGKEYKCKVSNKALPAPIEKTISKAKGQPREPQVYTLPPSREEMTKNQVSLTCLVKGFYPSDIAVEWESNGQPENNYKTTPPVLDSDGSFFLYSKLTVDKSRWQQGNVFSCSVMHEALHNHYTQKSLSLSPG
light: SYELTQPPSVSVSPGQTARITCSGGSYSSYYYAWYQQKPGQAPVTLIYSDDKRPSNIPERFSGSSSGTTVTLTISGVQAEDEADYYCGGYDQSSYTNPFGGGTKLTVLGQPKANPTVTLFPPSSEELQANKATLVCLISDFYPGAVTVAWKADGSPVKAGVETTKPSKQSNNKYAASSYLSLTPEQWKSHRSYSCQVTHEGSTVEKTVAPTECS
notes: Original Hum1 VL + IGLC1 light chain; also called antibody PC334; Hum1_IGLC1
Q: Which Kd (human SIRP-α v2) does the source give for B4 here?
A: Its Kd is 0.0438 nM.

Q: What about the Kd (human SIRP-β) of the same binder?
A: The Kd was 0.0371 nM.

Q: And the Kd (human SIRP-α v1 [3])?
A: The Kd was 0.0151 nM.

Q: And the Kd (human SIRP-γ)?
A: The Kd was 0.0452 nM.

Q: What about the Kd [4] of the same binder?
A: Its Kd is 0.0774 nM.

Q: What about the Kd (BL6 mouse SIRP-α protein [5]) of the same binder?
A: Its Kd is 3.29 nM.

Q: And the Kd (NOD mouse SIRP-α protein)?
A: Its Kd is 8.19 nM.

Q: What about the Kd [6] of the same binder?
A: The Kd was 6.75 nM.

B5: PC367 (antibody, human IgG2, lambda, N297A)
heavy: EVQLVESGGGVVQPGGSLRLSCAASGFTFSSNAMSWVRQAPGKGLEWVAGISAGGSDTYYPASVKGRFTISRDNSKNTLYLQMNSLRAEDTAVYYCARETWNHLFDYWGQGTLVTVSSASTKGPSVFPLAPCSRSTSESTAALGCLVKDYFPEPVTVSWNSGALTSGVHTFPAVLQSSGLYSLSSVVTVPSSNFGTQTYTCNVDHKPSNTKVDKTVERKCCVECPPCPAPPVAGPSVFLFPPKPKDTLMISRTPEVTCVVVDVSHEDPEVQFNWYVDGVEVHNAKTKPREEQFASTFRVVSVLTVVHQDWLNGKEYKCKVSNKGLPAPIEKTISKTKGQPREPQVYTLPPSREEMTKNQVSLTCLVKGFYPSDIAVEWESNGQPENNYKTTPPMLDSDGSFFLYSKLTVDKSRWQQGNVFSCSVMHEALHNHYTQKSLSLSPG
light: SYELTQPPSVSVSPGQTARITCSGGSYSSYYYAWYQQKPGQAPVTLIYSDDKRPSNIPERFSGSSSGTTVTLTISGVQAEDEADYYCGGYDQSSYTNPFGGGTQLTVLGQPKANPTVTLFPPSSEELQANKATLVCLISDFYPGAVTVAWKADGSPVKAGVETTKPSKQSSDKYAASSYLSLTPEQWKSHRSYSCQVTHEGSTVEKTVAPTECS
notes: AB21 MutAll VH + human IgG2 N297A; Hum1 VL version 2 + IGLC1 SD light chain
Q: What does the source list for B5?
A: Kd (human SIRP-α v2): 0.0823 nM; Kd (human SIRP-β): 0.0327 nM; Kd (human SIRP-α v1 [3]): 0.00211 nM; Kd (human SIRP-γ): 0.0352 nM; Kd [4]: 0.0501 nM; Kd (BL6 mouse SIRP-α protein [5]): 19.7 nM; Kd (NOD mouse SIRP-α protein): 6.37 nM; Kd [6]: 7.87 nM
